Assay results as given in article PMC4549865, “The Escherichia coli NarL receiver domain regulates transcription through promoter specific functions” (BMC Microbiology, 2015).

B1: NarL N-terminal domain plus linker region (NarL^N, residues 2-141), unphosphorylated (domain or fragment, Escherichia coli, UniProt P0AF28 2-141, looked up)
chain: SNQEPATILLIDDHPMLRTGVKQLISMAPDITVVGEASNGEQGIELAESLDPDLILLDLNMPGMNGLETLDKLREKSLSGRIVVFSVSNHEEDVVTALKRGADGYLLKDMEPEDLLKALHQAAAGEMVLSEALTPVLAAS
notes: NarL, nitrate response regulator of Escherichia coli; residues 2-141 (in-frame beginning at Ser2, stop codon introduced at Leu142); receiver domain and linker helix alpha6; The pQE9 construction puts a Gly in the place of Met1, before Ser2; also called NarL^(N (2–141)); NarL RD; source: E. coli JM109 (pQE9 derivative pMJ99), purified (Ni-NTA resin or HiTrap chelating column)
B2: Phosphorylated NarL receiver domain with portion of the linker (NarL^N-P, residues 2-141) (domain or fragment, Escherichia coli, UniProt P0AF28 2-141, looked up)
chain: B1 chain
modifications: phosphorylated with acetyl phosphate; the site of phosphorylation is Asp59
notes: NarL, nitrate response regulator of Escherichia coli; residues 2-141 (in-frame beginning at Ser2, stop codon introduced at Leu142); receiver domain and linker helix alpha6; The pQE9 construction puts a Gly in the place of Met1, before Ser2; also called phosphorylated NarL^N; phosphorylated RD

Molecular target: the molecule itself
Test: AUC; sedimentation equilibrium, 4 °C, Beckman Optima XL-A, absorption optics; samples at 60 μM and 160 μM in 25 mM Tris pH 7.5-8.5, 500 mM NaCl (other salts in some runs); 11,000-22,000 rpm; single-species fits and global fits of monomer-dimer and other models; monomer to dimer

Protein | stoichiometry N
B1 | 2
B2 | 2
